Results: publication PMC3898841, “Identification of a Major Determinant for Serine-Threonine Kinase Phosphoacceptor Specificity” (Molecular Cell, 2014)
Blank lines part the entries; values can stand above or below the binder they belong to.

Experiments:
MST4 V165F (human) = MST4 V165F (human) (UniProt Q9P289)
WT MST4 (human) = WT MST4 (human) (UniProt Q9P289)
WT PAK4 catalytic domain [1] = biological target: T1, WT PAK4 catalytic domain (human, UniProt O96013 286-591, phosphoserine at 474 (activation loop, as seen in the structures)); assay: crystal structure; WT PAK4 crystals grown by hanging drop vapor diffusion against 0.1 M Tris-HCl (pH 7.5), 1.5-2.0 M NaOAc at room temperature and soaked with peptides; conditions: both partners purified
T1 construct: residues built in the models: 300-589 (4JDH, 4JDI) and 291-591 (2Q0N); The construct of PDB 2Q0N may have other limits than that of 4JDH/4JDI

[2] = biological target: T2, PAK4 F461V catalytic domain (human, UniProt O96013 286-591, F461V, phosphoserine at 474 (activation loop, as seen in the structures)); assay: crystal structure; PAK4 F461V cocrystals with peptide, hanging drop vapor diffusion, 0.1 M Tris-HCl (pH 7.5), 1.5-2.0 M NaOAc at room temperature; conditions: both partners purified
T2 construct: residues built in the models: 300-589; also called F461V mutant PAK4

[3] = biological target: T2, PAK4 F461V catalytic domain
WT PAK4 catalytic domain [4] = biological target: T1, WT PAK4 catalytic domain
WT PAK4 catalytic domain [5] = biological target: T1, WT PAK4 catalytic domain; assay: crystal structure; cocrystals of PAK4 with PAKtide-S(L), 1.7 M ammonium sulfate, 15% PEG400, 0.1 M Tris-HCl (pH 8.0); conditions: both partners purified

T1 sequence (O96013 286-591): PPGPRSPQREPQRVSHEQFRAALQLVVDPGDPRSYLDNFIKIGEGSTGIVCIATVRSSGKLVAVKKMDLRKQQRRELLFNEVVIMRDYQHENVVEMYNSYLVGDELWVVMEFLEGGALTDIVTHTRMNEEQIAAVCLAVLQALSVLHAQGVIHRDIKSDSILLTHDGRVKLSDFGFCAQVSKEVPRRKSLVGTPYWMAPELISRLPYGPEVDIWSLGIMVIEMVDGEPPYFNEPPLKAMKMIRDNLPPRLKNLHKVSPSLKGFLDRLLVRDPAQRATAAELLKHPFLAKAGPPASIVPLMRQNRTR
T2 sequence (O96013 286-591 F461V): as the sequence (O96013 286-591) above, with F176V counted along it
Sequence of MST4 V165F (human) (Q9P289 whole entry V165F): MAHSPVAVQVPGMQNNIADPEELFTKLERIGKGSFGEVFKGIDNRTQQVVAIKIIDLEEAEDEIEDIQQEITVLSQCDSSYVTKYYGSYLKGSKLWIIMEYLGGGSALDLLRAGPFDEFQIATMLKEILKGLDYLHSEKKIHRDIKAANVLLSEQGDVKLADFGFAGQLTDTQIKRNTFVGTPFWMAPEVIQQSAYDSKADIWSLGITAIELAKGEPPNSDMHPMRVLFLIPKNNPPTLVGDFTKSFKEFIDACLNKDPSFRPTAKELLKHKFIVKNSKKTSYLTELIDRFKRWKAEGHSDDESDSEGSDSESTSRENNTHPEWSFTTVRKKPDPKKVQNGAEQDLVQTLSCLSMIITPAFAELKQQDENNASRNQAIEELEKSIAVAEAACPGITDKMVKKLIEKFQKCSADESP
Sequence of WT MST4 (human) (Q9P289 whole entry, the tested form may be a part): as the sequence (Q9P289 whole entry V165F) above, with F165V counted along it

B1: MST4 substrate peptide … (X = Ser) (peptide)
peptide: NKGYNSLRRKK
- Km for phosphorylation of the peptide (radiolabel filter binding kinase assay) (MST4 V165F (human)): 360 µM
- Km for phosphorylation of the peptide (radiolabel filter binding kinase assay) (WT MST4 (human)): 21.7 µM

B4: PAKtide-S(L) (peptide)
peptide: RRRRRSWYFDG
notes: longer consensus peptide substrate of PAK4, phosphoacceptor Ser (P0); also called longer version of the consensus peptide; source: synthetic peptide
- binding result (WT PAK4 catalytic domain [5]): binds

B5: MST4 substrate peptide … (X = Thr) (peptide)
peptide: NKGYNTLRRKK
- Km for phosphorylation of the peptide (radiolabel filter binding kinase assay) (MST4 V165F (human)): 390 µM
- Km for phosphorylation of the peptide (radiolabel filter binding kinase assay) (WT MST4 (human)): 14 µM

Now from value to binder:

- binding result (WT PAK4 catalytic domain [1]): binds
- binding result [2]: binds
B2: PAKtide-S (peptide)
peptide: RRRRSWY
notes: consensus peptide substrate of PAK4, phosphoacceptor Ser (P0); also called PAK4 consensus peptide substrate with Ser phosphoacceptor (short form used for crystals); source: synthetic peptide

- Km for phosphorylation of the peptide (radiolabel filter binding kinase assay) [3]: 129 µM
- Km for phosphorylation of the peptide (radiolabel filter binding kinase assay) (WT PAK4 catalytic domain [4]): 280 µM
B3: PAK4 substrate peptide … (X = Ser) (peptide)
peptide: GGRRRRRSWYFGGGK
